T1: IL-6R-Fc 항원 (human, UniProt P08887 20-365, limits assumed)
T1 construct: domain: IL-6R full domain; Made in-house as IL-6R-Fc; also called IL-6R full; IL-6R full domain인 단백질; not shown: Fc part (vector pYK 604)
T1 sequence (looked up): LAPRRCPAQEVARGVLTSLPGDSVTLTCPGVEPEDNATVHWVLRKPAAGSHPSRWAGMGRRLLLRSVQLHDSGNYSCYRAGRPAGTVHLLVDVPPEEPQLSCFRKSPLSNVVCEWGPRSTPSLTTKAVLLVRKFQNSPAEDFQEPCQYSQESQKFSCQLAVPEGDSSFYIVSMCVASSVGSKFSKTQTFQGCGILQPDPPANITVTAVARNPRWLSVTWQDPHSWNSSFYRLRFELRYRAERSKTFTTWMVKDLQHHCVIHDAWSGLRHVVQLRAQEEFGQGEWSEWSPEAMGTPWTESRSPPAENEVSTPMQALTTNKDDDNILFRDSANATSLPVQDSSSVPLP

B1: 항 IL-6R 단클론 항체 A7 (antibody, V domains shown)
VH: QMQLVESGGGLVQPGTSLRLSCAASGFKFEDYAMHWVRQAPGKGLEWVSGVSWNSGTIAYVDSVKGRFTISRDNAKNSLYLQMNSLRAEDTAVYYCARDFTYFYESSGYYAFDLWGQGTMVTVSS
VL: SQLVLTQPPSVSGAPGQRVTISCTGTNSNIGAGYDVHWYQQVPGTTPKLLIYGNTNRPSGVPDRFSGSKSGTSASLAITGLQAEDGGDYYCQSFDSSLTGSVFGTGTKVTVL
B2: 항 IL-6R 단클론 항체 D2 (antibody, V domains shown)
VH: QVQLVESGAEVKKPGSSVKVSCKGSGDTFPNYAINWVRQAPGQGPEWMGRIIPMLGTSDYAEKFQGRVTITADKSTNTAYMGLNSLRSEDTAVYYCVKGPRYYGTDSYYLEKWGQGTMVTVSS
VL: SQLVLTQPPSVSGAPGQTVTISCTGPTIGAGYDVHWYQQLPGAAPKLLIYGNLNRPSGVPDRFSGSKSGTSASLAITDLQAEDEADYYCHTYDSSLSGSWVFGGGTKLTVL
B3: 항 IL-6R 단클론 항체 B10 (antibody, V domains shown)
VH: QVQLVESGGGLVQPGGSLRLSCAASGFIFDDYAMFWVRQVPGKGLEWVAGINWNGNGIGYGDSVRGRFIISRDNARNSLDLQMNSLRAEDTAVYYCARPSLYGGNSEFDLWGQGTLVTVSS
VL: B2 VL
B4: 항 IL-6R 단클론 항체 F2 (antibody, V domains shown)
VH: QVQLVESGAEVKKPGASVKVSCKASGYTFTNYYMHWVRQAPGQGLEWMGIINPSGGNTGYAQKFQGRVTMTRDMSTSTAYMELSSLRSEDTAVYYCARGLPWGENGLDVWGQGTTVTVSS
VL: SQLVLTQPSSVSGAPGQTVTISCTGSSSNIGAGYDVHWYQQLPGTAPKVLIYGDSDRPSGVPDRFSGSKSATSASLAITGLQAEDEADYYCQSYDSSLSAYVFGTGTKVTVL
B5: B10/TNFR2 (bispecific antibody)
heavy: not shown
light: DVHSQLVLTQPPSVSGAPGQTVTISCTGPTIGAGYDVHWYQQLPGAAPKLLIYGNLNRPSGVPDRFSGSKSGTSASLAITDLQAEDEADYYCHTYDSSLSGSWVFGGGTKLTVL
notes: also called Anti-IL-6R/TNFR2
B6: A7/TNFR2 (bispecific antibody)
heavy: not shown
light: DVHSQLVLTQPPSVSGAPGQRVTISCTGTNSNIGAGYDVHWYQQVPGTTPKLLIYGNTNRPSGVPDRFSGSKSGTSASLAITGLQAEDGGDYYCQSFDSSLTGSVFGTGTKVTVL
notes: also called Anti-IL-6R/TNFR2; Dual
B7: 모노 파아지 클론 D2 (scFv, V domains shown)
VH: B2 VH
VL: B2 VL
notes: also called D02
B8: 모노 파아지 클론 B10 (scFv, V domains shown)
VH: B3 VH
VL: B2 VL
notes: also called 6B10
B9: 모노 파아지 클론 F2 (scFv, V domains shown)
VH: B4 VH
VL: B4 VL
notes: also called F02
B10: 모노 파아지 클론 A7 (scFv, V domains shown)
VH: B1 VH
VL: B1 VL
notes: also called A07

T3 sequence (P01375 77-233 limits assumed): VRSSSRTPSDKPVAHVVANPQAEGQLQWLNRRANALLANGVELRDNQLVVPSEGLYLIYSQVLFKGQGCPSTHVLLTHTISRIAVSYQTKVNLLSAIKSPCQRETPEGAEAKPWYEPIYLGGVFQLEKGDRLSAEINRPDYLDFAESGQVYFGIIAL

One assay deals with T1, IL-6R-Fc 항원. Put plainly: ELISA titration on coated IL-6R; fit R2 0.93. (An ELISA detects its analyte on a solid surface through an enzyme-linked reagent.)
In general, Kd refers to the free concentration of one partner at which half of the binding sites on the other are occupied at equilibrium, for simple one-to-one binding. For the molecule B1, binding was characterised by a dissociation constant (Kd) of 2.3 nM.

In a further assay the target is T1, IL-6R-Fc 항원. Put plainly: ELISA titration on coated IL-6R (repeats the 3rd table).
On to B2, for which the Kd amounted to 7.5 nM.

B3 displayed a Kd of 4.3 nM.

Molecule B4 yielded a Kd of 0.35 nM.

B1 showed an equilibrium dissociation constant (Kd) of 2.3 nM.

The next assay concerns the target T1, IL-6R-Fc 항원. Put plainly: ELISA; IL-6R coated 100 ng/well; IgG at 0.09766 nM; anti-Fab-HRP.
On to B2, for which the “OD 490 nm” value was 0.45 OD490.

As for B3, the “OD 490 nm” value was 0.462 OD490.

For the molecule B4, the “OD 490 nm” value was found to be 0.743 OD490.

With B1, the “OD 490 nm” value was determined as 0.497 OD490.

A further assay has as its target T1, IL-6R-Fc 항원. Briefly: ELISA titration on coated IL-6R; fit R2 0.75.
B3 registered a Kd of 4.3 nM.

For the next assay, the target named is T1, IL-6R-Fc 항원. Put plainly: ELISA; IL-6R coated 100 ng/well; IgG at 0.04883 nM; anti-Fab-HRP.
For B2, the “OD 490 nm” value was found to be 0.451 OD490.

Regarding B3, the “OD 490 nm” value turned out to be 0.451 OD490.

For B4, the “OD 490 nm” value is 0.584 OD490.

Turning to B1, the “OD 490 nm” value is 0.498 OD490.

The next assay addresses T1, IL-6R-Fc 항원. Put plainly: assay on IL-6R not described for the bispecific protein.
B5 registered a Kd of 4.3 nM.

With B6, the equilibrium dissociation constant (Kd) came out at 2.3 nM.

In another assay the target is T1, IL-6R-Fc 항원. Put plainly: ELISA; IL-6R coated 100 ng/well; IgG at 0.02441 nM; anti-Fab-HRP.
In the case of B2, the “OD 490 nm” value stood at 0.449 OD490.

B3: the “OD 490 nm” value was 0.468 OD490.

On to B4, for which the “OD 490 nm” value came out at 0.535 OD490.

Consider B1, for which the “OD 490 nm” value was 0.514 OD490.

For the next assay, the target named is T1, IL-6R-Fc 항원. Briefly: ELISA; IL-6R coated 100 ng/well; IgG at 50 nM; anti-Fab-HRP.
As for B2, the “OD 490 nm” value was 2.38 OD490.

As to B3, the “OD 490 nm” value amounted to 2.09 OD490.

B4: the “OD 490 nm” value amounted to 2.99 OD490.

In the case of B1, the “OD 490 nm” value was 3.1 OD490.

A further assay deals with T1, IL-6R-Fc 항원. Briefly: ELISA titration on coated IL-6R; fit R2 0.98.
Turning to B4, the affinity, expressed as Kd, was 0.35 nM.

Another assay concerns the target T1, IL-6R-Fc 항원. Briefly: ELISA; IL-6R coated 100 ng/well; IgG at 0.19531 nM; anti-Fab-HRP.
B2: the “OD 490 nm” value is 0.469 OD490.

B3: the “OD 490 nm” value came to 0.429 OD490.

In the case of B4, the “OD 490 nm” value came out at 1.01 OD490.

As for B1, the “OD 490 nm” value was determined as 0.546 OD490.

In a further assay the target is T1, IL-6R-Fc 항원. Put plainly: ELISA; IL-6R coated 100 ng/well; IgG at 0.78125 nM; anti-Fab-HRP.
Turning to B2, the “OD 490 nm” value came out at 0.479 OD490.

For the molecule B3, the “OD 490 nm” value amounted to 0.5 OD490.

For the molecule B4, the “OD 490 nm” value amounted to 1.9 OD490.

B1: the “OD 490 nm” value was 0.782 OD490.

The next assay addresses T2, a-Myc.
T2 construct: Coated at 100 ng/well in the phage ELISAs
Briefly: mono phage ELISA; a-Myc coated 100 ng/well; anti-M13-HRP.
For B7, the “OD 490 nm (a-myc)” value was determined as 0.303 OD490.

Regarding B8, the “OD 490 nm (a-myc)” value came out at 0.113 OD490.

Take B9: the “OD 490 nm (a-myc)” value stood at 0.287 OD490.

In the case of B10, the “OD 490 nm (a-myc)” value is 0.0797 OD490.

Another assay concerns the target T1, IL-6R-Fc 항원. Briefly: ELISA; IL-6R coated 100 ng/well; IgG at 12.5 nM; anti-Fab-HRP.
On to B2, for which the “OD 490 nm” value was 1.47 OD490.

As for B3, the “OD 490 nm” value worked out at 1.39 OD490.

Regarding B4, the “OD 490 nm” value turned out to be 2.92 OD490.

As for B1, the “OD 490 nm” value is 2.58 OD490.

Another assay concerns the target T1, IL-6R-Fc 항원. Put plainly: ELISA; IL-6R coated 100 ng/well; IgG at 0.39063 nM; anti-Fab-HRP.
For B2, the “OD 490 nm” value was found to be 0.473 OD490.

Take B3: the “OD 490 nm” value is 0.476 OD490.

Take B4: the “OD 490 nm” value was found to be 1.41 OD490.

Regarding B1, the “OD 490 nm” value came out at 0.618 OD490.

The target of a further assay is T1, IL-6R-Fc 항원. Briefly: ELISA; IL-6R coated 100 ng/well; IgG at 1.5625 nM; anti-Fab-HRP.
Regarding B2, the “OD 490 nm” value stood at 0.584 OD490.

B3: the “OD 490 nm” value turned out to be 0.607 OD490.

Consider B4, for which the “OD 490 nm” value was 2.43 OD490.

For the molecule B1, the “OD 490 nm” value was 1.17 OD490.

A further assay concerns the target T3, TNF-α (UniProt P01375 77-233).
T3 construct: Coated at 100 ng/well; also called TNF-a; TNF-α 리간드
Briefly: ELISA; TNF-α coated 100 ng/well; protein from 100 nM in 1/4 steps; anti-Human Fc-HRP.
For the molecule B5, binding was put at a Kd of 0.72 nM.

A further assay addresses T1, IL-6R-Fc 항원. Briefly: ELISA; IL-6R coated 100 ng/well; IgG at 6.25 nM; anti-Fab-HRP.
Take B2: the “OD 490 nm” value was determined as 0.981 OD490.

Turning to B3, the “OD 490 nm” value was 1.04 OD490.

For the molecule B4, the “OD 490 nm” value came to 2.71 OD490.

Take B1: the “OD 490 nm” value came out at 2.13 OD490.

Another assay deals with T1, IL-6R-Fc 항원. Put plainly: ELISA titration on coated IL-6R; fit R2 0.8.
B2 showed a Kd of 7.5 nM.

For the next assay, the target named is T1, IL-6R-Fc 항원. Put plainly: ELISA; IL-6R coated 100 ng/well; IgG at 25 nM; anti-Fab-HRP.
For the molecule B2, the “OD 490 nm” value is 1.94 OD490.

For B3, the “OD 490 nm” value was found to be 1.78 OD490.

B4: the “OD 490 nm” value came to 2.89 OD490.

As to B1, the “OD 490 nm” value stood at 2.84 OD490.

The next assay has as its target T1, IL-6R-Fc 항원. Put plainly: ELISA; IL-6R coated 100 ng/well; IgG at 3.125 nM; anti-Fab-HRP.
As to B2, the “OD 490 nm” value worked out at 0.719 OD490.

Consider B3, for which the “OD 490 nm” value was 0.761 OD490.

On to B4, for which the “OD 490 nm” value is 2.72 OD490.

For the molecule B1, the “OD 490 nm” value turned out to be 1.64 OD490.

For the origin of these results see patent publication KR20130126543A (dated 2013).
